The source of these data is US20230365641.

Several values for one entry are separate records, joined by “and”; a condition that tells them apart may be missing. Equal values may be shown once.

recombinant human MMP-9, sequence (chain, as listed by the source): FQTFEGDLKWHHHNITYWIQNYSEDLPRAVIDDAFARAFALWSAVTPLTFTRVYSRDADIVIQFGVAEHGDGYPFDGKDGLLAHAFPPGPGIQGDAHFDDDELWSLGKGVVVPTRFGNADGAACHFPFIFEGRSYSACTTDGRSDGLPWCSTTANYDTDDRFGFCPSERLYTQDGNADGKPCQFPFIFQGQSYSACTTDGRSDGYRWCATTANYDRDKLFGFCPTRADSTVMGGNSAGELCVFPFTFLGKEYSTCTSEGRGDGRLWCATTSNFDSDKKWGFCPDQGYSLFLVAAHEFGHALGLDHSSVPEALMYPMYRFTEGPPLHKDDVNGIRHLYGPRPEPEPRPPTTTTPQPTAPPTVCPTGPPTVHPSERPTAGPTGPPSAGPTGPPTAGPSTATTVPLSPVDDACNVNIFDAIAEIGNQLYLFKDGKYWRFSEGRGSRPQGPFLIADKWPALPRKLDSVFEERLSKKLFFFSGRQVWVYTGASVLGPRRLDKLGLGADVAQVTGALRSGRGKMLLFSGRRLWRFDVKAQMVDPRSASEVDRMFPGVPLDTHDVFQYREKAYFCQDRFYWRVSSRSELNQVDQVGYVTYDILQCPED
MMP-10 protease, sequence (chain, as listed by the source): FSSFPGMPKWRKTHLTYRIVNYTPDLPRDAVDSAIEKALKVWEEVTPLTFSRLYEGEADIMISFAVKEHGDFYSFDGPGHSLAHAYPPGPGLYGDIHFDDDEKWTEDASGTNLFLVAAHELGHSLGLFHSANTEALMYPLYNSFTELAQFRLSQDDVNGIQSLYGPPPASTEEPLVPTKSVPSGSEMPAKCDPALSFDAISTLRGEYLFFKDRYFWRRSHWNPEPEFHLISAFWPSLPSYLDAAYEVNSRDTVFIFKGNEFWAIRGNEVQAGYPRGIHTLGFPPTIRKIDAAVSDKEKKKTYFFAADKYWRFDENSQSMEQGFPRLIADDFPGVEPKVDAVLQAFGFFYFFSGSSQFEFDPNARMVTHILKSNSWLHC
TC24, sequence (chain, as listed by the source, chain 1 of 3, other chains not shown): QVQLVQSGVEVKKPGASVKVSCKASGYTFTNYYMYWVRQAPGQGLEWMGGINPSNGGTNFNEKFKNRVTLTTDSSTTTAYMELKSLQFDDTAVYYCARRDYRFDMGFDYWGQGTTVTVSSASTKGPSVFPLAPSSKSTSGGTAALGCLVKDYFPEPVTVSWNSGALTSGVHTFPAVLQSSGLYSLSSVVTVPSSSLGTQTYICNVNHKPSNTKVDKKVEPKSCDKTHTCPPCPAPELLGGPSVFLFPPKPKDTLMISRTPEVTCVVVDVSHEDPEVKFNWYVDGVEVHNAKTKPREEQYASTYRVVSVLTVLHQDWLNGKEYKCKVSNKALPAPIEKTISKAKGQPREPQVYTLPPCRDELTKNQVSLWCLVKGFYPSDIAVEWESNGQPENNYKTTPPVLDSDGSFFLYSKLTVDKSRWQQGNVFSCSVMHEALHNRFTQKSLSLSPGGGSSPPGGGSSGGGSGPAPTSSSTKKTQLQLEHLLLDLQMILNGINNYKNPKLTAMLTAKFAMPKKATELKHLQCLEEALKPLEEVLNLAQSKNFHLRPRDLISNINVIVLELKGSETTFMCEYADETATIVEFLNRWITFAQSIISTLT
TC24, sequence (chain, as listed by the source, chain 2 of 3, other chains not shown): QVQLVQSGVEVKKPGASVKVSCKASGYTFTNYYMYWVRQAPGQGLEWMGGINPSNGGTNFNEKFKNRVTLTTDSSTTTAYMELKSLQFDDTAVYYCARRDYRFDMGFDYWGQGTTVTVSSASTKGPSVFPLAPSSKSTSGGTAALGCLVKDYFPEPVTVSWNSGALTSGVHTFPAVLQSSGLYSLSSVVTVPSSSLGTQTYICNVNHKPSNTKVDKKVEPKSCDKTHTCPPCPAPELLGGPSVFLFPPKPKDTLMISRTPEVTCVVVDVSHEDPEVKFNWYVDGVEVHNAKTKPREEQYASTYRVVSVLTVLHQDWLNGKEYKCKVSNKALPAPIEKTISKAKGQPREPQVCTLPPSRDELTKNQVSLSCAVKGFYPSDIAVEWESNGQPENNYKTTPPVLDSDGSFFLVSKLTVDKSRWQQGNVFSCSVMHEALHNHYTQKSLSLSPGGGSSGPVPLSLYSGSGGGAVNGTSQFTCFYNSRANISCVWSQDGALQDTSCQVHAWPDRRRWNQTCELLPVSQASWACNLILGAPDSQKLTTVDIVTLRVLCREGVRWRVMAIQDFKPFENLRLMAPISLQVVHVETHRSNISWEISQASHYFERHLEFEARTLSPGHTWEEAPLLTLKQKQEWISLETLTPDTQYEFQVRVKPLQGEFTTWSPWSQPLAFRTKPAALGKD
TC47, sequence (chain, as listed by the source, chain 1 of 3, other chains not shown): as the sequence (chain, as listed by the source, chain 1 of 3, other chains not shown) above
TC47, sequence (chain, as listed by the source, chain 2 of 3, other chains not shown): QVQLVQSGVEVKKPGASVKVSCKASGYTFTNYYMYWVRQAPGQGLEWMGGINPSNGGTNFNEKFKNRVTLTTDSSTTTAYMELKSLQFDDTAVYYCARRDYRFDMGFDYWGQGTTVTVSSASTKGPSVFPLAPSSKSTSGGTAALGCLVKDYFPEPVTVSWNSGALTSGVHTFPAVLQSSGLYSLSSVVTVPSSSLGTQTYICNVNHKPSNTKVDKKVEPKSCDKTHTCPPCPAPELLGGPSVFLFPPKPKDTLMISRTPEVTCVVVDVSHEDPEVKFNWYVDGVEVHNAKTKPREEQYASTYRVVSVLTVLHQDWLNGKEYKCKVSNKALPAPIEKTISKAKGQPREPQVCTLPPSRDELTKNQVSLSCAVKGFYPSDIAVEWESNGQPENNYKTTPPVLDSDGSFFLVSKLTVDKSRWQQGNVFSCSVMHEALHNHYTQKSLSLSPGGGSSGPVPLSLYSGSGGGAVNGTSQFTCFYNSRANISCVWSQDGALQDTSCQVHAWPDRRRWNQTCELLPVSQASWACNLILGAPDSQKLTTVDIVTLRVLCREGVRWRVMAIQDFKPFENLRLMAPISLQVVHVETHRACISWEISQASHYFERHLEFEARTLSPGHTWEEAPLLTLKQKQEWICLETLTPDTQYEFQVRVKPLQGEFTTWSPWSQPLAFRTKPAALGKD
TC46, sequence (chain, as listed by the source, chain 1 of 3, other chains not shown): as the sequence (chain, as listed by the source, chain 1 of 3, other chains not shown) above
TC46, sequence (chain, as listed by the source, chain 2 of 3, other chains not shown): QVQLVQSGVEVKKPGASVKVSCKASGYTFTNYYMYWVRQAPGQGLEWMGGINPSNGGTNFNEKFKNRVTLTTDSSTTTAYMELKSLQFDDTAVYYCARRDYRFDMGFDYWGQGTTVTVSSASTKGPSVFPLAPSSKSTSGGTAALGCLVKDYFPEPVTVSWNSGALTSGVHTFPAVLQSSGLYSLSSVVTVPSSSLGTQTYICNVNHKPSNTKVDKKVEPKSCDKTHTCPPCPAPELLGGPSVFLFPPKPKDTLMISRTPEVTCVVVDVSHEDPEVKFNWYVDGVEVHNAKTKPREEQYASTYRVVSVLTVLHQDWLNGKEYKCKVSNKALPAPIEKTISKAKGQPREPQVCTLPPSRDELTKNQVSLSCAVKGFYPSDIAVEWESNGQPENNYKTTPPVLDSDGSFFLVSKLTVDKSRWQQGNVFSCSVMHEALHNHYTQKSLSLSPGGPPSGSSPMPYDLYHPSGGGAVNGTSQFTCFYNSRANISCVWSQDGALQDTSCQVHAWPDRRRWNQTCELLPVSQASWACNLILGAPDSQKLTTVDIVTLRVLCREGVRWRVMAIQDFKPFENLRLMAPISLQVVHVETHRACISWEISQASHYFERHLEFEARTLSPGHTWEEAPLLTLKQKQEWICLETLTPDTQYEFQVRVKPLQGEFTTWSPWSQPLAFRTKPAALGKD
TC3, sequence (chain, as listed by the source, chain 1 of 3, other chains not shown): as the sequence (chain, as listed by the source, chain 1 of 3, other chains not shown) above
TC3, sequence (chain, as listed by the source, chain 2 of 3, other chains not shown): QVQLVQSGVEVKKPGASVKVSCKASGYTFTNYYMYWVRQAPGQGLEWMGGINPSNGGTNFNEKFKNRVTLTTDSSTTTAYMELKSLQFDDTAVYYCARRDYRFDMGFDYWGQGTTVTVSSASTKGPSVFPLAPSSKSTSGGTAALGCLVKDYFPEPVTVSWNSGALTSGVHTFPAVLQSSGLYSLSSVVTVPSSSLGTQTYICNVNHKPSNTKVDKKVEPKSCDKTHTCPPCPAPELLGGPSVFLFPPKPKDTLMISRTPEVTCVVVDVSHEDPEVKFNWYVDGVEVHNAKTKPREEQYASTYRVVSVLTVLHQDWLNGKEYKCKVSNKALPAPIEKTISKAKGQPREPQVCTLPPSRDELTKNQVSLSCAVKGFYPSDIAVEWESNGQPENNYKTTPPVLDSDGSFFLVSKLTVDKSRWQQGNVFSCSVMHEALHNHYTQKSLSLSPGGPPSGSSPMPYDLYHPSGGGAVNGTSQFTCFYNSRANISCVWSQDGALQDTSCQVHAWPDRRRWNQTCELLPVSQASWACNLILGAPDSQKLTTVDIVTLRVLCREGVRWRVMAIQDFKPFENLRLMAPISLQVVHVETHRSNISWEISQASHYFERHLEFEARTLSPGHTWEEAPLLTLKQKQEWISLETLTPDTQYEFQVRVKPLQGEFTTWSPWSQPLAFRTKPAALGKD

Take MMP-10 protease: the cleavage efficiency entry with TC21, in the data set on TC24, in the data set on TC26 and with TC27 was “cleavage efficiency of greater than 80%” throughout.
For the substance recombinant human MMP-9, the Est. kcat/KM is 42000 M⁻¹ s⁻¹ in the data set with TC24; 3500 M⁻¹ s⁻¹ with TC3; 3500 M⁻¹ s⁻¹ with TC46; 38000 M⁻¹ s⁻¹ in the data set on TC47; 19000 M⁻¹ s⁻¹ and 18000 M⁻¹ s⁻¹ with TC53; 13000 M⁻¹ s⁻¹ and 14000 M⁻¹ s⁻¹ in the data set on TC57. The Est. kcat/KM in the data set with TC68 is 16000 M⁻¹ s⁻¹ and 15000 M⁻¹ s⁻¹; with TC69 it was 35000 M⁻¹ s⁻¹ and 36000 M⁻¹ s⁻¹; in the data set on TC70, 390 M⁻¹ s⁻¹ and 370 M⁻¹ s⁻¹; with TC71 it was 28000 M⁻¹ s⁻¹ and 30000 M⁻¹ s⁻¹; with TC73, 30000 M⁻¹ s⁻¹ and 29000 M⁻¹ s⁻¹; in the data set on TC74, 850 M⁻¹ s⁻¹ and 860 M⁻¹ s⁻¹. Moreover, the Est. kcat/KM in the data set on TC75 was 25000 M⁻¹ s⁻¹ and 26000 M⁻¹ s⁻¹.
